Data reported in US20190142956A1.
Where no end group is shown, it is not given here.

Key:
[1] = biological target: human plasma fibronectin (human) (UniProt P02751); test: cell-based or functional assay
[2] = biological target: human plasma fibronectin (human) (UniProt P02751); test: ITC, peptide injected into human plasma FN, PBS pH 7.4, 25 C, triplicate; set-up: ΔS: unit not given here
[3] = biological target: EDA-containing cellular fibronectin made by human fibroblasts and human proximal tubular epithelial cells (human), P02751; test: cell-based or functional assay
EDA-containing cellular fibronectin made by human fibroblasts and human proximal tubular epithelial cells (human), P02751, sequence (P02751 32-2477): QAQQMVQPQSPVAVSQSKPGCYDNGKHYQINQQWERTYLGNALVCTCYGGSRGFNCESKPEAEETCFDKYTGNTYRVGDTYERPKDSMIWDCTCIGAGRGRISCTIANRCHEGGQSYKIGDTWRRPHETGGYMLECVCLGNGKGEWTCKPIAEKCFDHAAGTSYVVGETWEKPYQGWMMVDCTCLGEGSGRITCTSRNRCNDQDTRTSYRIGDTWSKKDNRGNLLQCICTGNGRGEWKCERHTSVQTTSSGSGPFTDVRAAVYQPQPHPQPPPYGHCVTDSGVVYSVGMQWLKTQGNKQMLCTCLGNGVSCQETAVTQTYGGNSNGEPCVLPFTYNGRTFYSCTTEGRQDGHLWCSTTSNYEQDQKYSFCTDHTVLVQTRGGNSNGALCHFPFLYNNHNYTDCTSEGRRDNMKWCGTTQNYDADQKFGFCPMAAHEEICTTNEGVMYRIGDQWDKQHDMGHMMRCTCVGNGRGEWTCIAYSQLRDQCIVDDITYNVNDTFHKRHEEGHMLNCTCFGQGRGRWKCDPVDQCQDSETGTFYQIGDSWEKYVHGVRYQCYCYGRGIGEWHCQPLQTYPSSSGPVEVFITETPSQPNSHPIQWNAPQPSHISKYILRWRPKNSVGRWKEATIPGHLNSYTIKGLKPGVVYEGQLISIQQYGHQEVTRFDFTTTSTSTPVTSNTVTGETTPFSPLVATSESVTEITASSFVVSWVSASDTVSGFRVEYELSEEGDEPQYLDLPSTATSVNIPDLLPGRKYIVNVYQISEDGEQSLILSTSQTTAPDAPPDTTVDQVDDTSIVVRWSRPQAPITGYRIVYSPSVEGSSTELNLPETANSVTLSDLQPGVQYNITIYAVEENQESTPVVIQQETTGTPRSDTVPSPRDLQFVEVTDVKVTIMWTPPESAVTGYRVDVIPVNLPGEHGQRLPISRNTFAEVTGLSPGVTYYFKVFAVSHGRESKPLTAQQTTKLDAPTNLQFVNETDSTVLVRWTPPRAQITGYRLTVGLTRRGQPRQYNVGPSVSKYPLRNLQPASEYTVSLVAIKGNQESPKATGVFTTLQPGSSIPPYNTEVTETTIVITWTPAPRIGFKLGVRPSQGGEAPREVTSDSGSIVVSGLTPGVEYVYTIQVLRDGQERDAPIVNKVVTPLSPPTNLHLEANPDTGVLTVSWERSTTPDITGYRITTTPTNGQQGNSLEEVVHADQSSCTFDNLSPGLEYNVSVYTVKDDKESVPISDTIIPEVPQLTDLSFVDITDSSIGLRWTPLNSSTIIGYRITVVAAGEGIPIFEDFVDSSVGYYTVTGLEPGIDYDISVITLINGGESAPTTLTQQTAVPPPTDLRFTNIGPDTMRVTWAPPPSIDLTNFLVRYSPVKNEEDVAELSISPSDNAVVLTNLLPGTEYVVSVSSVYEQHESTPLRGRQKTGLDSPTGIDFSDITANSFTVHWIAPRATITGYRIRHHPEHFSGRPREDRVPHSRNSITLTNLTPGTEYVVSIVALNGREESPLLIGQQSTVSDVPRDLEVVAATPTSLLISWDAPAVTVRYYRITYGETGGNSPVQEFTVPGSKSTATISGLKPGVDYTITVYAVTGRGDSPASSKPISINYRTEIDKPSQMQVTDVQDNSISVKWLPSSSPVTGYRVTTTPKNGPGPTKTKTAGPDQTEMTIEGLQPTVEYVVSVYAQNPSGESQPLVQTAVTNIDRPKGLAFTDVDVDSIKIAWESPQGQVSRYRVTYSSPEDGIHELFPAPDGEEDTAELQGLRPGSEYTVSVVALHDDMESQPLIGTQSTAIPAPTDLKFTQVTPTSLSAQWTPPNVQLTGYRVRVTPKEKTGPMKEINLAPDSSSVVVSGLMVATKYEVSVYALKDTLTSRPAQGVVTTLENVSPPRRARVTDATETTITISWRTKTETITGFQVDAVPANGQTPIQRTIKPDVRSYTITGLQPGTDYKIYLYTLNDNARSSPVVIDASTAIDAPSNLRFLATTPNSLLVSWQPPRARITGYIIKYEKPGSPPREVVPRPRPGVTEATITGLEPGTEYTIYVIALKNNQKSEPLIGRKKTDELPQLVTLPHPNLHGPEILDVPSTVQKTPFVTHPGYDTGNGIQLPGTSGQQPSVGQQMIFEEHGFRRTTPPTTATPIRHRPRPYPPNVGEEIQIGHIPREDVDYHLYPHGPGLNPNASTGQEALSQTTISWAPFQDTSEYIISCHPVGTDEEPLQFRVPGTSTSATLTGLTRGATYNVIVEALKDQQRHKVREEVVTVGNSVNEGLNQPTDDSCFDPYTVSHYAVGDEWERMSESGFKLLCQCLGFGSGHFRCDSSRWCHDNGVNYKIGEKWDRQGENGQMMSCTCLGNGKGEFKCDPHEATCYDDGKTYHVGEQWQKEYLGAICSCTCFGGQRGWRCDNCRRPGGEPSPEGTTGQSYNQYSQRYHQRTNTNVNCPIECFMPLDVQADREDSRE

Row | Molecule | IC50, inhibition of A488-FN fibrillogenesis [1] | percent inhibition of A488-FN fibrillogenesis, doses up to 20 µM [1] | Kd [2] | n [2] | ΔG [2] | ΔH [2] | ΔS [2] | IC50, inhibition of endogenous EDA+-fibronectin fibrillogenesis (human fibroblasts and HK-2 cells) [3]
1 | functional upstream domain (FUD) peptide | 25 to 30 nM | 60% | 6 nM | 1.59 | -11.4 kcal/mol | -31 kcal/mol | -65 | 
2 | 10 kDa PEG-FUD (peptide) |  |  | 4.6 nM | 1.55 | -11.4 kcal/mol | -34 kcal/mol | -74 | 
3 | 40 kDa PEG-FUD (peptide) |  |  | 14.7 nM | 1.43 | -10.9 kcal/mol | -32.5 kcal/mol | -73 | 
4 | 20 kDa PEG-FUD (peptide) | 25 to 30 nM | 60% | 10 nM | 1.63 | -10 kcal/mol | -30 kcal/mol | -66 | 
5 | KDQSPLAGESGETEYITEVYGNQQNPVDIDKKLPNETGFSGNMVETEDT [functional upstream domain (FUD) peptide] |  |  |  |  |  |  |  | 30 nM
6 | {mPEG 20 kDa}-KDQSPLAGESGETEYITEVYGNQQNPVDIDKKLPNETGFSGNMVETEDT (not fully specified) [20 kDa PEG-FUD] |  |  |  |  |  |  |  | 30 nM
